Measured values published in article PMC7480108.
Each block holds one molecule with its values, some of them ahead of it.

How the values were obtained:
GST-FGD1^18-335 = GST-FGD1^18-335 (UniProt P52734); test: pull-down; GST-tagged FGD1 fragment (2 µM) immobilised on Glutathione Sepharose 4B beads, incubated with MDA-MB-231 cell lysates (untransfected or transfected with TKS5^GFP constructs) 2 h at 4°C; 50 mM Tris-HCl pH 7.5, 150 mM NaCl, 0.5 mM EDTA, 10 mM MgCl2, 10% glycerol, 0.7% NP-40; immunoblotting
Sequence of UniProt P52734 (P52734 18-335): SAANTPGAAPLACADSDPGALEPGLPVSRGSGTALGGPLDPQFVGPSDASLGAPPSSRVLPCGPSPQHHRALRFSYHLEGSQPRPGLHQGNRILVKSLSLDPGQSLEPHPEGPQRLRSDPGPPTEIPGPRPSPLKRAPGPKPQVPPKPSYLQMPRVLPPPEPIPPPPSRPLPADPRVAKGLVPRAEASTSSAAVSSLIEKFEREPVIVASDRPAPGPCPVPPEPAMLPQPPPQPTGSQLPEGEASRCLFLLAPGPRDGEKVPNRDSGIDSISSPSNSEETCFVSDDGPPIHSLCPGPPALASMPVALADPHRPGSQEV

[1] = target: endogenous FGD1 (faciogenital dysplasia protein 1) (UniProt P98174); test: co-immunoprecipitation (anti-GFP nanobody, GFP-Trap) with FGD1 immunoblot; conditions: lysates of MDA-MB-231 cells; 1% of total lysate loaded as input; parent: 100
TKS5^GFPW1092A (human) = test: co-IP; GFP-Trap (anti-GFP nanobody beads) from NP-40 lysates of MDA-MB-231 cells expressing GFP-tagged constructs, 1 h 4°C; immunoblotting of bound proteins

- percent of the input pulled down (% of the input) (GST-FGD1^18-335): 1.35
Molecule: TKS5^GFP (natural protein)

- percent of parent (% of wild-type TKS5) [1]: 91
Molecule: TKS5^GFP W861A

- percent of the input pulled down (% of the input) (GST-FGD1^18-335): 2.85
Molecule: TKS5_324-1118^GFP (domain or fragment)

- percent of the wild-type TKS5 binding capacity (% of wild type) (TKS5^GFPW1092A (human)): 10
B1: endogenous FGD1 (faciogenital dysplasia protein 1) (natural protein)
chain: MHGHRAPGGAGPSEPEHPATNPPGAAPPACADSDPGASEPGLLARRGSGSALGGPLDPQFVGPSDTSLGAAPGHRVLPCGPSPQHHRALRFSYHLEGSQPRPGLHQGNRILVKSLSLDPGQSLEPHPEGPQRLRSDPGPPTETPSQRPSPLKRAPGPKPQVPPKPSYLQMPRMPPPLEPIPPPPSRPLPADPRVAKGLAPRAEASPSSAAVSSLIEKFEREPVIVASDRPVPGPSPGPPEPVMLPQPTSQPPVPQLPEGEASRCLFLLAPGPRDGEKVPNRDSGIDSISSPSNSEETCFVSDDGPPSHSLCPGPPALASVPVALADPHRPGSQEVDSDLEEEDDEEEEEEKDREIPVPLMERQESVELTVQQKVFHIANELLQTEKAYVSRLHLLDQVFCARLLEEARNRSSFPADVVHGIFSNICSIYCFHQQFLLPELEKRMEEWDRYPRIGDILQKLAPFLKMYGEYVKNFDRAVELVNTWTERSTQFKVIIHEVQKEEACGNLTLQHHMLEPVQRIPRYELLLKDYLLKLPHGSPDSKDAQKSLELIATAAEHSNAAIRKMERMHKLLKVYELLGGEEDIVSPTKELIKEGHILKLSAKNGTTQDRYLILFNDRLLYCVPRLRLLGQKFSVRARIDVDGMELKESSNLNLPRTFLVSGKQRSLELQARTEEEKKDWVQAINSTLLKHEQTLETFKLLNSTNREDEDTPPNSPNVDLGKRAPTPIREKEVTMCMRCQEPFNSITKRRHHCKACGHVVCGKCSEFRARLVYDNNRSNRVCTDCYVALHGVPGSSPACSQHTPQRRRSILEKQASVAAENSVICSFLHYMEKGGKGWHKAWFVVPENEPLVLYIYGAPQDVKAQRSLPLIGFEVGPPEAGERPDRRHVFKITQSHLSWYFSPETEELQRRWMAVLGRAGRGDTFCPGPTLSEDREMEEAPVAALGATAEPPESPQTRDKT
